Experiments:
CD47 = CD47 (UniProt Q08722); assay: FACS binding CHO-K1 cells expressing CD47
human CTLA-4 (human) = human CTLA-4 (human) (UniProt P16410); assay: FACS binding CHO-K1 cells expressing human CTLA-4
human CTLA-4 (human), sequence (P16410 36-223): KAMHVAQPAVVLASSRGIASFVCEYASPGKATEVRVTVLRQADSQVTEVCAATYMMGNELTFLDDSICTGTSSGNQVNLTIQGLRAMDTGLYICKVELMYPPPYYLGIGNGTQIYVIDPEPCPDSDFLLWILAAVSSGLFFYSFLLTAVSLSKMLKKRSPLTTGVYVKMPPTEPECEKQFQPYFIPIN

CD47, sequence (Q08722 19-323): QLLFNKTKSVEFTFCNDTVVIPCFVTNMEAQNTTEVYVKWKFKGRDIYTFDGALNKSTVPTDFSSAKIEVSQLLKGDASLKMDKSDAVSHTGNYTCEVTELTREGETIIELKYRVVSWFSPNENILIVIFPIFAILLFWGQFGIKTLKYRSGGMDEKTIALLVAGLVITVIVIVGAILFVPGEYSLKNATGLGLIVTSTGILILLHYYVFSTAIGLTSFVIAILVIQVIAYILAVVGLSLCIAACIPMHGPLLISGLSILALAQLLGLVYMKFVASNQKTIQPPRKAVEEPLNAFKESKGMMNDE

EC50 (CD47): 3.85 nM | EC50 (human CTLA-4 (human)): 42.1 nM
Substance: human IgG
